Molecular target: CDY14HL-Fc4 (human) (UniProt Q9BYF1)
Assay: SPR

SARS-CoV-2 receptor binding domain (RBD), Wuhan (from UniProt P0DTC2 330-530) (domain or fragment)
Kd: 0.031 nM

Reference: PMC8282039
